In PMC6857588 one finds Kd data, which are given here for 4 substances.

pKd: −log10 of the molar value.

The target in this assay is filamentous actin (F-actin) (not stated (human platelet or rabbit muscle actin)) (UniProt P68135). Description: co-sedimentation; 0.5 µM NMY-2S1 incubated with different amounts of actin, 150,000 g for 1.5 h at room temperature; percent of NMY-2 S1 in the pellet fitted with a one-site specific binding model.
“NMY-2(R252A)S1 (NMY-2 S1 fragment R252A bound to MLC-4 and MLC-5) (from UniProt G5EBY3 1-874; Q09510 1-172; Q9XVI9 1-142) (complex)” gave a pKd of 5.61.

With “NMY-2(S250A)S1 (NMY-2 S1 fragment S250A bound to MLC-4 and MLC-5) (from UniProt G5EBY3 1-874; Q09510 1-172; Q9XVI9 1-142) (complex)”, the pKd was 6.18.

“NMY-2(S251A)S1 (NMY-2 S1 fragment S251A bound to MLC-4 and MLC-5) (from UniProt G5EBY3 1-874; Q09510 1-172; Q9XVI9 1-142) (complex)” gave a pKd of 7.21.

As to “wild-type NMY-2S1 (NMY-2 S1 fragment bound to MLC-4 and MLC-5) (from UniProt G5EBY3 1-874; Q09510 1-172; Q9XVI9 1-142) (complex)”, the pKd was 6.18.
